These results are taken from the supplement of paper PMC10567573.

First the molecules themselves.
B1: IFRG15 (parent)
chain: INRADYCPECYPDNPANRSLVLPW
B2: MMP1 (parent)
chain: MFFKDRFYMRTNPFYPEVELNFIS
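Also: lentivirally expressed fusions sorted by FACS into six bins by GFP to DsRed ratio, PSI derived from sequencing read proportions per bin multiplied by bin number.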

The first data set covers variants of B1. Nature of the data set: protein stability index of a GFP-peptide fusion (GPS, HEK-293T) (PSI 1-6); higher = more stable. Particulars: c terminus: a fixed tail appended.
Regarding INRADYCPECYPDNPANTSLVLPW, the protein stability index was 1.35.

For the variant INRADYCPECYPDNPANQSLVLPW, the protein stability index was found to be 1.99.

As to INRADYCPECYPDNPANVSLVLPW, the protein stability index amounted to 1.9.

In the case of INRADYCPECYPDNPANFSLVLPW, the protein stability index is 2.32.

INRADYCPECYPDNPANMSLVLPW: the protein stability index was 2.06.

Regarding INRADYCPECYPDNPANDSLVLPW, the protein stability index worked out at 2.88.

Regarding INRADYCPECYPDNPANLSLVLPW, the protein stability index came to 1.83.

Turning to INRADYCPECYPDNPANESLVLPW, the protein stability index was 2.13.

Regarding INRADYCPECYPDNPANGSLVLPW, the protein stability index turned out to be 1.99.

Turning to INRADYCPECYPDNPANNSLVLPW, the protein stability index turned out to be 2.22.

With INRADYCPECYPDNPANPSLVLPW, the protein stability index was found to be 2.38.

Take INRADYCPECYPDNPANCSLVLPW: the protein stability index is 1.81.

Turning to INRADYCPECYPDNPANISLVLPW, the protein stability index turned out to be 1.82.

As for INRADYCPECYPDNPANSSLVLPW, the protein stability index came to 2.27.

Consider INRADYCPECYPDNPANWSLVLPW, for which the protein stability index is 1.69.

As to INRADYCPECYPDNPANASLVLPW, the protein stability index is 2.17.

In the case of INRADYCPECYPDNPANHSLVLPW, the protein stability index was 2.17.

With INRADYCPECYPDNPANRSDVLPW, the protein stability index worked out at 2.73.

Take INRADYCPECYPDNPANRSKVLPW: the protein stability index is 2.27.

Regarding INRADYCPECYPDNPANRSAVLPW, the protein stability index is 3.02.

As to INRADYCPECYPDNPANRSEVLPW, the protein stability index came out at 2.9.

For INRADYCPECYPDNPANRSHVLPW, the protein stability index amounted to 2.4.

Turning to INRADYCPECYPDNPANRSSVLPW, the protein stability index stood at 2.28.

Regarding INRADYCPECYPDNPANRSPVLPW, the protein stability index amounted to 2.31.

In the case of INRADYCPECYPDNPANRSWVLPW, the protein stability index was determined as 1.8.

As for INRADYCPECYPDNPANRSMVLPW, the protein stability index was 2.67.

Take INRADYCPECYPDNPANRSNVLPW: the protein stability index was determined as 2.78.

With INRADYCPECYPDNPANRSVVLPW, the protein stability index was 2.44.

Turning to INRADYCPECYPDNPANRSQVLPW, the protein stability index was determined as 2.02.

On to INRADYCPECYPDNPANRSIVLPW, for which the protein stability index amounted to 2.27.

Take INRADYCPECYPDNPANRSYVLPW: the protein stability index turned out to be 1.86.

Regarding INRADYCPECYPDNPANRSGVLPW, the protein stability index is 2.48.

As for INRADYCPECYPDNPANRSFVLPW, the protein stability index worked out at 1.79.

Regarding INRADYCPECYPDNPANRSRVLPW, the protein stability index was determined as 2.13.

For the variant INRADYCPECYPDNPANRSTVLPW, the protein stability index came out at 2.57.

With INRADYCPECYPDNPANRSCVLPW, the protein stability index is 2.06.

With INRADYCPECYPDNPANRSLVLKW, the protein stability index stood at 1.71.

Regarding INRADYCPECYPDNPANRSLVLHW, the protein stability index was determined as 1.65.

Regarding INRADYCPECYPDNPANRSLVLCW, the protein stability index turned out to be 1.67.

With INRADYCPECYPDNPANRSLVLIW, the protein stability index was determined as 2.89.

Turning to INRADYCPECYPDNPANRSLVLLW, the protein stability index stood at 1.57.

In the case of INRADYCPECYPDNPANRSLVLYW, the protein stability index stood at 2.09.

For the variant INRADYCPECYPDNPANRSLVLSW, the protein stability index is 2.83.

As for INRADYCPECYPDNPANRSLVLQW, the protein stability index is 1.87.

INRADYCPECYPDNPANRSLVLDW: the protein stability index was found to be 2.92.

In the case of INRADYCPECYPDNPANRSLVLTW, the protein stability index was determined as 1.59.

Take INRADYCPECYPDNPANRSLVLNW: the protein stability index came to 1.65.

With INRADYCPECYPDNPANRSLVLRW, the protein stability index was determined as 1.58.

As to INRADYCPECYPDNPANRSLVLMW, the protein stability index was found to be 2.5.

In the case of INRADYCPECYPDNPANRSLVLWW, the protein stability index is 2.4.

With INRADYCPECYPDNPANRSLVLEW, the protein stability index is 1.03.

The variants in a further data set derive from B2. The description is as above. Particulars: c terminus: a fixed tail appended.
Turning to MTFKDRFYMRTNPFYPEVELNFIS, the protein stability index was 2.29.

As to MCFKDRFYMRTNPFYPEVELNFIS, the protein stability index turned out to be 3.01.

MLFKDRFYMRTNPFYPEVELNFIS: the protein stability index amounted to 2.36.

Take MIFKDRFYMRTNPFYPEVELNFIS: the protein stability index came to 2.59.

MKFKDRFYMRTNPFYPEVELNFIS: the protein stability index is 4.48.

For the variant MNFKDRFYMRTNPFYPEVELNFIS, the protein stability index was found to be 1.93.

Take MPFKDRFYMRTNPFYPEVELNFIS: the protein stability index is 2.06.

Take MVFKDRFYMRTNPFYPEVELNFIS: the protein stability index turned out to be 2.75.

With MMFKDRFYMRTNPFYPEVELNFIS, the protein stability index worked out at 2.02.

Turning to MHFKDRFYMRTNPFYPEVELNFIS, the protein stability index turned out to be 2.93.

Regarding MDFKDRFYMRTNPFYPEVELNFIS, the protein stability index was found to be 2.71.

For MEFKDRFYMRTNPFYPEVELNFIS, the protein stability index stood at 2.98.

For MGFKDRFYMRTNPFYPEVELNFIS, the protein stability index amounted to 3.1.

On to MAFKDRFYMRTNPFYPEVELNFIS, for which the protein stability index worked out at 3.29.

Consider MSFKDRFYMRTNPFYPEVELNFIS, for which the protein stability index was determined as 2.72.

As for MRFKDRFYMRTNPFYPEVELNFIS, the protein stability index came out at 4.3.

Regarding MQFKDRFYMRTNPFYPEVELNFIS, the protein stability index amounted to 2.26.

As to YFFKDRFYMRTNPFYPEVELNFIS, the protein stability index stood at 1.86.

Consider AFFKDRFYMRTNPFYPEVELNFIS, for which the protein stability index is 1.89.

In the case of DFFKDRFYMRTNPFYPEVELNFIS, the protein stability index was 2.24.

For HFFKDRFYMRTNPFYPEVELNFIS, the protein stability index was determined as 2.05.

Consider SFFKDRFYMRTNPFYPEVELNFIS, for which the protein stability index came to 2.84.

As to WFFKDRFYMRTNPFYPEVELNFIS, the protein stability index was determined as 3.52.

With CFFKDRFYMRTNPFYPEVELNFIS, the protein stability index worked out at 2.83.

Consider IFFKDRFYMRTNPFYPEVELNFIS, for which the protein stability index was 2.17.

Take VFFKDRFYMRTNPFYPEVELNFIS: the protein stability index stood at 3.89.

On to NFFKDRFYMRTNPFYPEVELNFIS, for which the protein stability index stood at 1.76.

Consider KFFKDRFYMRTNPFYPEVELNFIS, for which the protein stability index was 2.94.

Regarding EFFKDRFYMRTNPFYPEVELNFIS, the protein stability index stood at 2.86.

For FFFKDRFYMRTNPFYPEVELNFIS, the protein stability index came to 3.03.

As for RFFKDRFYMRTNPFYPEVELNFIS, the protein stability index turned out to be 2.2.

Consider MFDKDRFYMRTNPFYPEVELNFIS, for which the protein stability index is 1.85.

As to MFSKDRFYMRTNPFYPEVELNFIS, the protein stability index amounted to 2.9.

For MFNKDRFYMRTNPFYPEVELNFIS, the protein stability index came to 1.73.

For the variant MFPKDRFYMRTNPFYPEVELNFIS, the protein stability index is 1.48.

In the case of MFEKDRFYMRTNPFYPEVELNFIS, the protein stability index came to 1.5.

Turning to MFRKDRFYMRTNPFYPEVELNFIS, the protein stability index came to 1.55.

MFQKDRFYMRTNPFYPEVELNFIS: the protein stability index was 3.42.

Take MFKKDRFYMRTNPFYPEVELNFIS: the protein stability index was determined as 1.83.

With MFHKDRFYMRTNPFYPEVELNFIS, the protein stability index stood at 1.89.

In the case of MFIKDRFYMRTNPFYPEVELNFIS, the protein stability index turned out to be 2.64.

As to MFGKDRFYMRTNPFYPEVELNFIS, the protein stability index worked out at 4.14.

With MFLKDRFYMRTNPFYPEVELNFIS, the protein stability index was found to be 2.29.
